B2: ScMlp1_(1–325), N-terminal fragment of Saccharomyces cerevisiae Myosin-like protein 1 (residues 1–325), homodimer (domain or fragment, UniProt Q02455 1-325, looked up)
chain: MSDHDTPMESIQNGENSDERLNAIASFFGCSLEQVKSFDGDVVKHLNDKLLQFNELKSENLKVTVSFDELKASSLKKIDGLKTEMENVIRENDKIRKERNDTFVKFESVENEKMKLSSELEFVKRKLDDLTEEKKETQSNQQRTLKILDERLKEIELVRVENNRSNSECKKLRSTIMDLETKQQGYITNDLNSRTELERKTQELTLLQSNNDWLEKELRSKNEQYLSYRQKTDKVILDIRNELNRLRNDFQMERTNNDVLKQKNNELSKSLQEKLLEIKGLSDSLNSEKQEFSAEMSLKQRLVDLLESQLNAVKEELNSIRELNT
notes: Cloned into NcoI/NotI of pET28a; hexahistidine tag removed with PreScission protease; Homodimer by SEC-MALS (~80 kDa; expected monomer 41 kDa); also called ΔC-ScMlp1; source: E. coli BL21(DE3)-RIL CodonPlus, purified (Ni-NTA, HiTrap Q, Superdex 200)

Data set [1] addresses B2. Put plainly: ITC; 1.6 mM ScPml39(77-317) injected (2 µl every 180 s) into 350 µl of 70 µM ScMlp1(1-325) in the chamber; 4 °C; 500 mM NaCl, 20 mM HEPES pH 7.5, 0.5 mM TCEP; three independent measurements. The note with it: both partners purified.
Data set [2] deals with the molecule itself. In words: SEC-MALS; 100 µl of 70 µM ScMlp1(1-325) on Superdex 200 10/300 GL, 0.5 mL/min, 25 °C; 500 mM NaCl, 20 mM HEPES-NaOH pH 7.5, 0.5 mM TCEP. For orientation: In gel filtration, larger molecules generally elute earlier.

One may read the Kd as the concentration at which binding is half-saturated. In general, stoichiometry N refers to a count of units in the complex or per binding partner.

B1: ScPml39_(77–317), truncated Saccharomyces cerevisiae pre-mRNA leakage 39-kDa protein (residues 77–317) (domain or fragment, UniProt Q03760 77-317, looked up)
chain: GFRLHDLRALLKRICSIQNYTRHVLIEWDVRWVNPLTLASKGWEPYQSASQSQVPFKCCCCHAIMTIPLLKNGDDVADYTMKLNEKIWNSNIIGNHLQKCPWRENQVDLNKEYYLSSQNLIREIERIHTEIDRIVSGSNEFSLKRNSSRIFHYLSEKEIQKLAFFFDCKDYSLVGLLLLGYTKFQKDDLVQCTACFHRASLKKLEYTEFNGHALWCRYYNKELLPTMLLELIGKEDKLITK
notes: Pml39 (pre-mRNA leakage 39-kDa protein), Saccharomyces cerevisiae, UniProtKB Q03760, residues 77-317 of 334; holds the zf-C3HC (79-189) and Rsm1 (190-311) modules; Cloned into NcoI/NotI of pET28a; hexahistidine tag removed with PreScission protease; also called truncated ScPml39; source: E. coli BL21(DE3)-RIL CodonPlus, purified (Ni-NTA, HiTrap SP, Superdex 200)
Consider B1, for which, in data set [1], the Kd is about 13 µM and the “stoichiometry N” value came out at 1.

Consider B2, for which the “stoichiometry N” value in data set [2] is 2.

Source of the values: PMC9586977, “Structure of the pre-mRNA leakage 39-kDa protein reveals a single domain of integrated zf-C3HC and Rsm1 modules” (Scientific Reports, 2022).
